The target of this assay is protein kinase A catalytic (C) subunit, wild type (UniProt P05132 2-351). Kind of assay: SPR.

B1: RIIβAB, truncated PKA regulatory subunit RIIβ (domain or fragment)
chain: TRRASVCAEAYNPDEEEDDAESRIIHPKTDDQRNRLQEACKDILLFKNLDPEQMSQVLDAMFEKLVKEGEHVIDQGDDGDNFYVIDRGTFDIYVKCDGVGRCVGNYDNRGSFGELALMYNTPRAATITATSPGALWGLDRVTFRRIIVKNNAKKRKMYESFIESLPFLKSLEVSERLKVVDVIGTKVYNDGEQIIAQGDSADSFFIVESGEVRITMKRKGKSDIEENGAVEIARCLRGQYFGELALVTNKPRAASAHAIGTVKCLAMDVQAFERLLGPCMEIMKRNIATYEEQLV
One may read the Kd as the equilibrium constant for the complex coming apart. Lower therefore signals higher affinity. In general, koff refers to the rate constant with which the complex falls apart. Read a high koff as a short-lived complex. Regarding B1, the dissociation constant (Kd) amounted to 2.9 nM and the koff came out at 0.000316 s⁻¹.

The values above are taken from article PMC2791020 (The Journal of Biological Chemistry, 2009).
